Here are results for two substances from US6008320A, “Elastase inhibitor and process for preparing the same” (Korea Advanced Institute of Science and Technology, priority 1995, dated 1999).

Entries after “also recorded” stand apart in the source; their conditions may differ.

Data set [1] addresses T1, elastase (Homo sapiens, UniProt P08246).
T1 sequence (P08246 30-267): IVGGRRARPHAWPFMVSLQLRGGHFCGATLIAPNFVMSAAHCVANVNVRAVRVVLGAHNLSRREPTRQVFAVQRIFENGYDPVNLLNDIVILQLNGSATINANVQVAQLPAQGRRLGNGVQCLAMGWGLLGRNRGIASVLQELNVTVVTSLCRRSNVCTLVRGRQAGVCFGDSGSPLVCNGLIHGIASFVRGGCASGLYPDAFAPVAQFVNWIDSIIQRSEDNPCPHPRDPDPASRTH
The settings on record: other elastase-inhibiting proteins in the prior art; read-out: inhibition constant; cited from earlier work.

A short description of data set [2]: Heat stability of Guamerin activity. In kind it is physicochemical. Conditions: 40° C. to 100° C. at an interval of 10° C., 15 min. How it is done: To investigate the effect of heat on the activity of Guamerin, it was subjected to heating condition at an interval of 10° C. ranging from 40° C. to 100° C. for 15 min(see: FIG. 6).
The next data set concerns the target pepsin (Homo sapiens, UniProt P0DJD8). As to the kind of experiment: Specificity of inhibiting activity: pepsin. Format: biochemical. How it is done: (§1) The specific activities of Guamerin on the other types of proteases beside elastase, were studied; and, it was determined that: while it has no effect on papain, pepsin, thrombin, and factor Xa, Guamerin had about 15% of inhibiting-activity against trypsin, chymotrypsin, and subtilisin. […] In FIG. 4, HL-elastase and PP-elastase represent the ones isolated from human leukocyte and porcine pancreas, respectively.

The subject of another data set is subtilisin. As to the kind of experiment: Specificity of inhibiting activity: subtilisin. Format: biochemical. Here is the method: as §1
The subject of data set [3] is elastase. As to the kind of experiment: Elastase-inhibiting activity assay (decrease in ρ-nitroaniline degrading activity of elastase). Format: biochemical. The settings on record: 1 U = amount of inhibitor that decreases the degradation of 1 μM ρ-nitroaniline by elastase per minute; 37° C., 50 min. How it is done:
The activity of the purified Guamerin was assayed as follows: 50 μl of elastase-containing solution(0.37 mg/ml) and 500 μl of 1 mM .rho.-nitroaniline were mixed together, and 50 μl of each of fractions obtained in the course of purification was added to the mixture, and left to react at 37° C. for 50 min. The absorbance(O.D.) at 440 nm calculated in terms of the hydrolysed .rho.-nitroaniline, was measured. O.D. values of the control and the active fractions were compared, and the activity of Guamerin was determined, based on the decrease in .rho.-nitroaniline degradating activity of elastase.
Protein was quantitatively assayed by Bradford method(see: Bradford, M. M., Anal. Biochem., 72: 248-254(1976)). In this regard, one unit(1 U) was defined as the amount of inhibitor that decreases the degradation of 1 μM .rho.-nitroaniline by elastase per minute.

For the next data set, the target named is chymotrypsin (Bos taurus, UniProt P00766). Description: Specificity of inhibiting activity: chymotrypsin. Format: biochemical. Here is the method:
as §1

Data set [4] relates to elastase. Description: Specificity of inhibiting activity: elastase. The settings on record: FIG. 4: HL-elastase (human leukocyte) and PP-elastase (porcine pancreas). In kind it is biochemical. Here is the method: as §1
The target in the next data set is factor Xa (Homo sapiens, UniProt P00742). Description: Specificity of inhibiting activity: factor Xa. Format: biochemical. How it is done:
as §1

A further data set has as its target T2, papain (Carica papaya, UniProt P00784).
T2 sequence (P00784 134-345): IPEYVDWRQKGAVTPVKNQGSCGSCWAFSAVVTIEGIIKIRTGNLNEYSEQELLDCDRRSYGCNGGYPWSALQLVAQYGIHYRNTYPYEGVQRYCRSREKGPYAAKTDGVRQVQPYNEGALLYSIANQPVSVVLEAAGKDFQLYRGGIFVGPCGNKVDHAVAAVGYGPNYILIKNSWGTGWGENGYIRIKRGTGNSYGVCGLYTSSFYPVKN
As to the kind of experiment: Specificity of inhibiting activity: papain. Format: biochemical. Here is the method: as §1

Data set [5] deals with T3, elastase (Homo sapiens, UniProt P08246).
T3 sequence (P08246 30-247 limits assumed): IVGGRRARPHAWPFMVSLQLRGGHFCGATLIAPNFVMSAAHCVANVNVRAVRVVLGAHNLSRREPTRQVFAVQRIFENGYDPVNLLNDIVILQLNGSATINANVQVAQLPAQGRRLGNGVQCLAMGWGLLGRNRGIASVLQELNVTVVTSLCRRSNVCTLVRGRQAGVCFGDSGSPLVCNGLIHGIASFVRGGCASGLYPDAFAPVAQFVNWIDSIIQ
Description: Determination of inhibition constant and inhibition mechanism. Format: biochemical. The settings on record: FIG. 5.

For the next data set, the target named is T4, trypsin (Bos taurus, UniProt P00760).
T4 construct: gene PRSS1
T4 sequence (P00760 24-246): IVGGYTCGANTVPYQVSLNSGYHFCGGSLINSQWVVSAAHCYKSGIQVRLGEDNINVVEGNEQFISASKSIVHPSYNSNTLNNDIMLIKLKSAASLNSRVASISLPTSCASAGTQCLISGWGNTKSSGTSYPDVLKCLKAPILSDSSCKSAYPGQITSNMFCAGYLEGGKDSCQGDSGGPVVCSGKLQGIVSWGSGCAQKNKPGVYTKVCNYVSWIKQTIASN
Description: Specificity of inhibiting activity: trypsin. In kind it is biochemical. Here is the method:
as §1

Another data set addresses thrombin (Homo sapiens, UniProt P00734). As to the kind of experiment: Specificity of inhibiting activity: thrombin. In kind it is biochemical. Here is the method:
as §1

Chain of pepsin (P0DJD8 63-388): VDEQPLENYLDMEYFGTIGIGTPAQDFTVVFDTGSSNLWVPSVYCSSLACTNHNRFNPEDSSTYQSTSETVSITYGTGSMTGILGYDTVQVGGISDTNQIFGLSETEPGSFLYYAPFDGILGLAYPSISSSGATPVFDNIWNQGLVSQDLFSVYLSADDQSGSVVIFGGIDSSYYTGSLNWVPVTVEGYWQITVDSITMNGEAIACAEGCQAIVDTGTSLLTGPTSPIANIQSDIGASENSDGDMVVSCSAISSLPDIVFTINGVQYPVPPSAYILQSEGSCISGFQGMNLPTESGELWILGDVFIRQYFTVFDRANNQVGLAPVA
Chain of factor Xa (P00742 235-488 limits assumed): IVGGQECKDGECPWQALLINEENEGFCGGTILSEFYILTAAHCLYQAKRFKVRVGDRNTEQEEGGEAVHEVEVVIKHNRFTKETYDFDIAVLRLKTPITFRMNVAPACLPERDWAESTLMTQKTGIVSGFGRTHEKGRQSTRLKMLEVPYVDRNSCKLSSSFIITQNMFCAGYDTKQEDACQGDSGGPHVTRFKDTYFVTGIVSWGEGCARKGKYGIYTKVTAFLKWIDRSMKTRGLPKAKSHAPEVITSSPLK

On to “elafin: elastase-inhibiting protein in the prior art, printed as isolated from european leeches (AQEPVKGPVSTKPGSCPIILIRCAMLNPPNRCLKDTDCPGIKKCCEGSCGMACFVPQ; UniProt P19957 61-117, looked up)”, for which the Ki in the data set with elastase [1] was 0.6 nM.
As for “Guamerin: novel elastase-inhibiting protein isolated from a Korean leech, Guameri (Hirudo nipponia); 57 amino acids, 6,110 Da (VDENAEDTHGLCGEKTCSPAQVCLNNECACTAIRCMIFCPNGFKVDENGCEYPCTCA)”, the “change in activity after heating” value in [2] is on record as “quite stable; also recorded: no change”. The effect on pepsin result in the data set with pepsin was “no effect”. The inhibiting-activity against subtilisin result in the data set with subtilisin is recorded as “about 15%”. The substance also came in with a Specific activity in the data set with elastase [3] of 361 units/mg. In addition, the inhibiting-activity against chymotrypsin entry with chymotrypsin was “about 15%”. In addition, the “inhibiting activity on elastase” value with elastase [4] is “about 90%”. Besides, the “effect on factor Xa” value with factor Xa is listed as “no effect”. Further, in the data set with papain, the effect on papain entry is on record as “no effect”. Besides, the “mechanism of elastase inhibition” value with elastase [5] is given as “competitive inhibition”. Besides, in the data set with trypsin, the inhibiting-activity against trypsin result is recorded as “about 15%”. In the data set with thrombin, the effect on thrombin result is “no effect”.
